These are literature values, as cited in PMC12692374.

By Kd is commonly meant the constant that tells how readily two partners part at equilibrium.

The series has as its target HIV-1 capsid (Human immunodeficiency virus 1) (UniProt O93182).

Sequence of NONO (Q15233 whole entry): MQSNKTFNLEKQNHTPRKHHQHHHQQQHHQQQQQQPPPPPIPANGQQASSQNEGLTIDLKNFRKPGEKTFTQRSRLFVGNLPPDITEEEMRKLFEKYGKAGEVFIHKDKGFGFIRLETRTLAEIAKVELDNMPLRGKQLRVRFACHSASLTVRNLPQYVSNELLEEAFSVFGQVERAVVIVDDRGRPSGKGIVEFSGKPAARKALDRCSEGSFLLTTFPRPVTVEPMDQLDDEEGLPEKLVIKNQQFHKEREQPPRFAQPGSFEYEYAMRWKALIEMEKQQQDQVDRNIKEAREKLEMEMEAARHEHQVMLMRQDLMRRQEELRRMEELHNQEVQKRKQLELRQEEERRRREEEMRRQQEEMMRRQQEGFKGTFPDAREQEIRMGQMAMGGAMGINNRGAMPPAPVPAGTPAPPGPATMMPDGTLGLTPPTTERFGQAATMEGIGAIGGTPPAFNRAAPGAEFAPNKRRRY
Sequence of HIV-1 capsid (Human immunodeficiency virus 1) (O93182 133-363): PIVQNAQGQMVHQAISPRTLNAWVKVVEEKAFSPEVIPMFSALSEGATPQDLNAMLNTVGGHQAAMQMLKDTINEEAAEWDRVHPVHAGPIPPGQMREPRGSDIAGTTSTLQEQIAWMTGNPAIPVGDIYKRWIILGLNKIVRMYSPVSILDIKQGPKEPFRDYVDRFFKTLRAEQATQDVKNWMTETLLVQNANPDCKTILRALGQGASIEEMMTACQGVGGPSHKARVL

For NONO (from UniProt Q15233), the Kd is 9.15 µM.
